Assays:
TGFβ1 (R&D systems) = TGFβ1 (R&D systems) (UniProt P01137); assay: cell-based or functional assay
[1] = biological target: IL2Rβ and common γ chain (on 32Dβ cells); assay: cell-based or functional assay

Sequence of UniProt P01137 (P01137 279-390 limits assumed): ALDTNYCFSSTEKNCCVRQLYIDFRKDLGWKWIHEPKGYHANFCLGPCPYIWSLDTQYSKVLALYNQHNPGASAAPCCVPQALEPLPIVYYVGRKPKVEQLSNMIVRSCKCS

Row | Substance | IC50, inhibition of TGFβ1 activity in HEK-Blue TGFβ cells (QUANTI-Blue OD 620-655 nM) (TGFβ1 (R&D systems)) [nM] | EC50, 32Dβ cell proliferation (WST1, absorbance 450 nM) [1] [nM]
1 | TGFR-Fc (R&D Systems) (from UniProt P37173 24-159) (Fc fusion) | 0.461 | –
2 | recombinant IL-15 (from UniProt P40933 49-162) (ligand) | – | 0.0106

Source: patent US20260137759A1
